# Laboratory results as given in the supplement of paper PMC7125110.
# ± gives the standard error. For some assays here: Variants at the floor of the assay were thinned out.
# B1: glmS ribozyme (parent)
# chain: AUAAAAGCGCCAGAACUACAGAAAUGUAGUUGACGAGGAGGAGGUUUAUCGAAUUUUCGGCGGAUGCCUCCAAA
# Columns and labels:
# Conditions in all cases: with glucosamine-6-phosphate
# glucosamine-6-phosphate [1] = variants of: B1; experiment: kcat; higher = faster cleavage; RNA array
# How it was run: (§1)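 Sequenced MiSeq chips were the platform: E. coli RNA polymerase transcribed barcoded ribozyme variants on them in situ, and a hybridised Cy3 probe tracked these at 37 °C. After glucosamine-6-phosphate (40 μM to 10 mM) in HEPES/KCl/Mg(OAc)2 buffer was flowed in, tiles were imaged over ~14 h. Signals normalised to baseline and to non-cleaving reference variants were reduced to per-tile medians and fit to one- or two-exponential decays to obtain kobs. kcat and KM were derived through weighted Michaelis–Menten fits across concentrations.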
# glucosamine-6-phosphate [2] = variants of: B1; experiment: self-cleavage kobs at 40 uM GlcN6P; higher = faster cleavage; RNA array
# How it was run: as §1
# glucosamine-6-phosphate [3] = variants of: B1; experiment: self-cleavage kobs at 160 uM GlcN6P; higher = faster cleavage; RNA array
# How it was run: as §1
# glucosamine-6-phosphate [4] = variants of: B1; experiment: self-cleavage kobs at 640 uM GlcN6P; higher = faster cleavage; RNA array
# How it was run: as §1
# glucosamine-6-phosphate [5] = variants of: B1; experiment: self-cleavage kobs at 2500 uM GlcN6P; higher = faster cleavage; RNA array
# How it was run: as §1
# glucosamine-6-phosphate [6] = variants of: B1; experiment: self-cleavage kobs at 10000 uM GlcN6P; higher = faster cleavage; RNA array
# How it was run: as §1
# glucosamine-6-phosphate [7] = variants of: B1; experiment: KM; higher = weaker cofactor use; RNA array
# How it was run: as §1
Variant,kcat (glucosamine-6-phosphate [1]),self-cleavage kobs at 40 uM GlcN6P (glucosamine-6-phosphate [2]),self-cleavage kobs at 160 uM GlcN6P (glucosamine-6-phosphate [3]),self-cleavage kobs at 640 uM GlcN6P (glucosamine-6-phosphate [4]),self-cleavage kobs at 2500 uM GlcN6P (glucosamine-6-phosphate [5]),self-cleavage kobs at 10000 uM GlcN6P (glucosamine-6-phosphate [6]),KM (glucosamine-6-phosphate [7])
AUAAAAGCGCCAGAACUACAGAAAUGUAGUUAACGAGGAGGAGGUUUAUCGAAUUUUCGGCGGAUGUCUCGAAA [G32A C67U C71G],8.98e-05 ± 2.5e-05 s⁻¹,5.63e-05 ± 2.5e-05 s⁻¹,9.79e-05 ± 2.3e-05 s⁻¹,0.000178 ± 4.1e-05 s⁻¹,9.42e-05 ± 2.9e-05 s⁻¹,5.54e-05 ± 2.2e-05 s⁻¹,–
AUAAAAGCGCCAGAACUACAGAAAUGUAGUGGACGAGGAGGAGGUUUAUCGAAUGCUCGGCGGAUGCCUCCAAA [U31G U55G U56C],0.00133 ± 0.00026 s⁻¹,–,7.22e-05 ± 2.4e-05 s⁻¹,0.000162 ± 3.4e-05 s⁻¹,0.000395 ± 9.8e-05 s⁻¹,0.000948 ± 0.00012 s⁻¹,4490 ± 1500 µM
AUAAAAGCGCCAGAACUACAGAAAUGUAGUUAACGAGGAGGAGGUUUAUUGAAUUUUCGGCGGAUGCCUACAAA [G32A C50U C70A],3.48e-05 ± 1.3e-05 s⁻¹,–,–,–,5.7e-05 ± 1.9e-05 s⁻¹,–,–
AUAAAAGCGCCAGAACUACAGAAAUGUAGUGGACGAGGAGGAGGUUUAUCGAAUUGUCGGCGGAUGUCUCCAAA [U31G U56G C67U],0.00109 ± 0.00017 s⁻¹,–,8.73e-05 ± 3.2e-05 s⁻¹,0.000176 ± 5.1e-05 s⁻¹,0.000493 ± 0.00014 s⁻¹,0.00086 ± 0.00015 s⁻¹,2910 ± 800 µM
AUAAAAGCGCCAGAACUACAGAAAUGUAGUGGACGAGGAGGAGGUUUAUCGAAUUAUCGGCGGAUGCCUCCAAA [U31G U56A],0.00739 ± 0.00043 s⁻¹,6.8e-05 ± 9.6e-06 s⁻¹,0.000307 ± 0.00014 s⁻¹,0.000903 ± 0.00017 s⁻¹,0.00263 ± 0.0008 s⁻¹,0.00519 ± 0.00083 s⁻¹,4370 ± 320 µM
AUAAAAGCGCCAGAACUACAGAAAUGUAGUUAACGAGGAGGAGGUUUAUCGAAUUUUCGGCGGAUGUCUCCAAA [G32A C67U],0.000858 ± 0.0002 s⁻¹,–,7.5e-05 ± 1.5e-05 s⁻¹,0.00023 ± 2.1e-05 s⁻¹,0.000374 ± 4.7e-05 s⁻¹,0.000854 ± 8.5e-05 s⁻¹,1940 ± 760 µM
AUAAAAGCGCCAGAACUACAGAAAUGUAGUUAACGAGGAGGAGGUUUAUCGAAUUUUCGGCGGGUGCCUCCAAA [G32A A64G],0.00438 ± 0.00041 s⁻¹,2.33e-05 ± 9.5e-06 s⁻¹,0.000104 ± 1.8e-05 s⁻¹,0.000433 ± 5.6e-05 s⁻¹,0.00144 ± 0.00035 s⁻¹,0.00267 ± 0.00027 s⁻¹,6200 ± 820 µM
AUAAAAGCGCCAGAACUACAGAAAUGUAGUUAACGAGGAGGAGGUUUAUCGAAUUUUAGGCGGAUGCUUCCAAA [G32A C58A C68U],0.000878 ± 0.00034 s⁻¹,–,–,8.56e-05 ± 1.4e-05 s⁻¹,0.000172 ± 7.4e-05 s⁻¹,0.000572 ± 0.00012 s⁻¹,–
AUAAAAGCGCCAGAACUACAGAAAUGUAGUUAACGAGGAGGAGGUUUAUCGCAUUUUCGGCGGAUGCCUCCAAA [G32A A52C],< 1e-05 s⁻¹,< 1e-05 s⁻¹,–,< 1e-05 s⁻¹,–,< 1e-05 s⁻¹,128 ± 28 µM
AUAAAAGCGCCAGAACUACAGAAAUGUAGUUAACGAGGAGGAGGUUUAUCGGAUUUUCGGCGGAUGCCUCCAAA [G32A A52G],0.000151 ± 1.3e-05 s⁻¹,–,–,5.19e-05 ± 2e-05 s⁻¹,8.18e-05 ± 1.4e-05 s⁻¹,0.000131 ± 1.5e-05 s⁻¹,1760 ± 480 µM
AUAAAAGCGCCAGAACUACAGAAAUGUAGUUAACGAGGAGGAGGUUUAUCGAGUUUUCGGCGGAUGCCUCCAAA [G32A A53G],0.00285 ± 0.00095 s⁻¹,5.52e-05 ± 9e-06 s⁻¹,0.000222 ± 3.2e-05 s⁻¹,0.00114 ± 0.0002 s⁻¹,0.00106 ± 0.00021 s⁻¹,0.00294 ± 0.00036 s⁻¹,1980 ± 950 µM
AUAAAAGCGCCAGAACUACAGAAAUGUAGUUAACGAGGAGGAGGUUUAUCGAAUUUUCGGCGGAUGCAUCCAAA [G32A C68A],1.56e-05 ± 4.4e-06 s⁻¹,–,–,–,–,–,–
AUAAAAGCGCCAGAACUACAGAAAUGUAGUUAACGAGGAGGAGGUUUAUCGAAUUUUCGGAGGAUGCCUCCAAA [G32A C61A],< 1e-05 s⁻¹,–,–,–,–,–,–
AUAAAAGCGCCAGAACUACAGAAAUGUAGUUAACGAGGAGGAGGUUUAUCGAAUUUUUGGCGGAUGCCUCCAAA [G32A C58U],6.81e-05 ± 1.1e-05 s⁻¹,< 1e-05 s⁻¹,–,3.37e-05 ± 1.6e-05 s⁻¹,4.13e-05 ± 1.1e-05 s⁻¹,6.46e-05 ± 1.3e-05 s⁻¹,–
AUAAAAGCGCCAGAACUACAGAAAUGUAGUUAACGAGGAGGAGGUUUAUCGAAUUUUCGGCGGAUGCCUCAAAA [G32A C71A],0.000628 ± 0.00012 s⁻¹,–,5.89e-05 ± 1.2e-05 s⁻¹,0.000112 ± 1.6e-05 s⁻¹,0.000293 ± 4.5e-05 s⁻¹,0.00052 ± 6e-05 s⁻¹,2570 ± 890 µM
